From patent US20260209350A1 (Alector, published 2026)

T1: mouse TREM2 Fc fusion protein (mouse, UniProt Q99NH8 19-171)
T1 construct: also called mTREM2-Fc; not shown: Fc part not specified
T1 sequence (looked up): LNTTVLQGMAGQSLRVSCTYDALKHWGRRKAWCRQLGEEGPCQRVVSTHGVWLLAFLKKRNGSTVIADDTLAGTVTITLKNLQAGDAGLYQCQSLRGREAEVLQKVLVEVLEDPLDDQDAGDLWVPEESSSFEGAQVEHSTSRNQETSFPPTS

T2: human TREM2 Fc fusion protein (human, UniProt Q9NZC2 19-174)
T2 construct: also called hTREM2-Fc; not shown: Fc part not specified
T2 sequence: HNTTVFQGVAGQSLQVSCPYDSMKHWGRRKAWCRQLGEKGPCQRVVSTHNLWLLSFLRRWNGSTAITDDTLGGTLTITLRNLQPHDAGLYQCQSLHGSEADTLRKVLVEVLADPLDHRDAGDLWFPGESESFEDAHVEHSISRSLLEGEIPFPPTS

T3: mouse TREM2 on cells (mouse, UniProt Q99NH8 19-227)
T3 construct: whole, on cells; Used for the recombinant protein on BWZ/BW cells (with mouse DAP12) and for the native protein on mouse macrophages and dendritic cells; the cell type stands under assay; also called mTREM2; mTrem2
T3 sequence (looked up): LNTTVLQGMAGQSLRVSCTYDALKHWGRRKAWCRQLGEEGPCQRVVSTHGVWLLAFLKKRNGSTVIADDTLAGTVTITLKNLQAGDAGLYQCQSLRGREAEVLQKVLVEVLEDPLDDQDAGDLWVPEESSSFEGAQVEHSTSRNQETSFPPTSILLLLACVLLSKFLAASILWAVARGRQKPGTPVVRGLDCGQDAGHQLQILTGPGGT

T4: human monomeric His tagged TREM2 protein (human, UniProt Q9NZC2 19-174)
T4 construct: also called hTREM2-HIS
T4 sequence: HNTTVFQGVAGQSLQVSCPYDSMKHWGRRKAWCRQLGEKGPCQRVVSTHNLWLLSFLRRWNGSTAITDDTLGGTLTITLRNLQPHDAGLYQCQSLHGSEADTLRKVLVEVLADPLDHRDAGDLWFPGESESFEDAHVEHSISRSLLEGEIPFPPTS


Key:
[1] = biological target: T1, mouse TREM2 Fc fusion protein; assay: ForteBio or MSD-SET, avid
[2] = biological target: T2, human TREM2 Fc fusion protein; assay: ForteBio or MSD-SET, avid
mouse TREM2 on cells = biological target: T3, mouse TREM2 on cells; assay: FACS, mTrem2 cells
[3] = biological target: T4, human monomeric His tagged TREM2 protein; assay: ForteBio or MSD-SET, monovalent

Binder | binding result [1] | Kd [2] [nM] | MFI (mouse TREM2 on cells) [MFI] | Kd [3] [nM] | Kd [1] [nM]
Ab44 (antibody, human IgG1, V domains shown, human IgG1) VH: QVQLVESGGGVVQPGRSLRLSCAASGFTFSTYGMHWVRQAPGKGLEWVAVIWYDGSNKYYADSVKGRFTISRDNSKNTLYLQMNSLRAEDTAVYYCARGTGAAAASPAFDIWGQGTMVTVSS VL: EIVMTQSPATLSLSPGERATLSCRASQSVSSYLAWYQQKPGQAPRLLIYDSSNRATGIPARFSGSGSGTDFTLTISSLEPEDFAVYYCQQLVHWPTFGGGTKVEIK | no binding | 0.562 | 1210 | 9.46 | –
Ab38 (antibody, human IgG1, V domains shown, human IgG1) VH: QVQLVESGGGVVQPGRSLRLSCAASGFTFSTYGMHWVRQAPGKGLEWVAVIWYDGSNKYYADSVKGRFTISRDNSKNTLYLQMNSLRAEDTAVYYCARGAPVDYGGIEPEYFQHWGQGTLVTVSS VL: EIVLTQSPATLSLSPGERATLSCRASQSVSSYLAWYQQKPGQAPRLLIYDASNRATGIPARFSGSGSGTDFTLTISSLEPEDFAVYYCQQIDFLPYTFGGGTKVEIK | no binding | 0.96 | 297 | 13.1 | –
Ab40 (antibody, human IgG1, V domains shown, human IgG1) VH: not shown VL: DIQMTQSPSSLSASVGDRVTITCRASQSISSYLNWYQQKPGKAPKLLIYAASSLQSGVPSRFSGSGSGTDFTLTISSLQPEDFATYYCQQGYAAPITFGGGTKVEIK | – | 0.197 | 577 | 7.97 | 6.03
Ab48 (antibody, human IgG1, V domains shown, human IgG1) VH: QVQLVQSGAEVKKPGASVKVSCKASGYTFTSYYMHWVRQAPGQGLEWMGIINPSGGSTTYAQKFQGRVTMTRDTSTSTVYMELSSLRSEDTAVYYCARPGKSMDVWGQGTTVTVSS VL: EIVLTQSPATLSLSPGERATLSCRASQSVSSYLAWYQQKPGQAPRLLIYDASNRATGIPARFSGSGSGTDFTLTISSLEPEDFAVYYCQQRAAYPITFGGGTKVEIK | – | 0.35 | 9770 | 9.08 | 1.41
Ab46 (antibody, human IgG1, V domains shown, human IgG1) VH: QVQLVQSGAEVKKPGASVKVSCKASGYTFTSYYMHWVRQAPGQGLEWMGIINPSGGSTSYAQKFQGRVTMTRDTSTSTVYMELSSLRSEDTAVYYCARPAKTADYWGQGTLVTVSS VL: EIVLTQSPATLSLSPGERATLSCRASQSVSSYLAWYQQKPGQAPRLLIYDSSNRATGIPARFSGSGSGTDFTLTISSLEPEDFAVYYCQQRSNYPITFGGGTKVEIK | – | 0.445 | 4260 | 16.8 | 2.46
Ab47 (antibody, human IgG1, V domains shown, human IgG1) VH: QVQLVQSGAEVKKPGASVKVSCKASGYTFTSYYMHWVRQAPGQGLEWMGIINPSGGSTTYAQKFQGRVTMTRDTSTSTVYMELSSLRSEDTAVYYCARPGKSMDVWGQGTTVTVSS VL: EIVLTQSPGTLSLSPGERATLSCRASQSVSSYLAWYQQKPGQAPRLLIYDASNRATGIPARFSGSGSGTDFTLTISSLEPEDFAVYYCQQRILYPITFGGGTKVEIK | – | 0.431 | 10100 | 7.37 | 1.45
Ab49 (antibody, human IgG1, V domains shown, human IgG1) VH: QVQLVQSGAEVKKPGASVKVSCKASGYTFTSYYMHWVRQAPGQGLEWMGIINPSGGSTSYAQKFQGRVTMTRDTSTSTVYMELSSLRSEDTAVYYCARPAKTADYWGQGTLVTVSS VL: EIVLTQSPATLSLSPGERATLSCRASQSVSSYLAWYQQKPGQAPRLLIYDASKRATGIPARFSGSGSGTDFTLTISSLEPEDFAVYYCQQRTSHPITFGGGTKVEIK | – | 0.435 | 4320 | 17.4 | 2.08
Ab67 (antibody, human IgG1, V domains shown, human IgG1) VH: QVQLVQSGAEVKKPGASVKVSCKASGYTFTSYYMHWVRQAPGQGLEWMGIINPSGGSTTYAQKFQGRVTMTRDTSTSTVYMELSSLRSEDTAVYYCARPGKSMDVWGQGTTVTVSS VL: EIVLTQSPATLSLSPGERATLSCRASQSVSSYLAWYQQKPGQAPRLLIYDASNRATGIPARFSGSGSGTDFTLTISSLEPEDFAVYYCQQRSHFPITFGGGTKVEIK | – | 0.66 | 6210 | 34.5 | 2.92
Ab50 (antibody, human IgG1, V domains shown, human IgG1) VH: QVQLVQSGAEVKKPGASVKVSCKASGYTFTSYYIHWVRQAPGQGLEWMGIINPSGGSTSYAQKFQGRVTMTRDTSTSTVYMELSSLRSEDTAVYYCARAPQESPYVFDIWGQGTMVTVSS VL: not shown | no binding | 0.729 | 325 | 36.4 | –
Ab5 (antibody, human IgG1, V domains shown, human IgG1) VH: QVQLVQSGAEVKKPGASVKVSCKASGYTFTSYYIHWVRQAPGQGLEWMGIINPSGGSTSYAQKFQGRVTMTRDTSTSTVYMELSSLRSEDTAVYYCARAPQESPYVFDIWGQGTMVTVSS VL: not shown | no binding | 0.697 | 310 | 30 | –
Ab53 (antibody, human IgG1, V domains shown, human IgG1) VH: QVQLVQSGAEVKKPGASVKVSCKASGYTFTSYYIHWVRQAPGQGLEWMGIINPSGGSTSYAQKFQGRVTMTRDTSTSTVYMELSSLRSEDTAVYYCARAPQESPYVFDIWGQGTMVTVSS VL: not shown | no binding | 0.635 | 843 | 21.6 | –
Ab55 (antibody, human IgG1, V domains shown, human IgG1) VH: not shown VL: EIVLTQSPATLSLSPGERATLSCRASQSVSSYLAWYQQKPGQAPRLLIYDASNRATGIPARFSGSGSGTDFTLTISSLEPEDFAVYYCQQLSTYPLTFGGGTKVEIK | – | 2.22 | 6220 | 91.7 | 1.17
Ab57 (antibody, human IgG1, V domains shown, human IgG1) VH: QVQLVQSGAEVKKPGASVKVSCKASGYTFTNYGISWVRQAPGQGLEWMGWISAYNGNTNYAQKLQGRVTMTTDTSTSTAYMELRSLRSDDTAVYYCARGPTKAYYGSGSYVVFDPWGQGTLVTVSS VL: EIVLTQSPATLSLSPGERATLSCRASQSVSSYLAWYQQKPGQAPRLLIYDASKRATGIPARFSGSGSGTDFTLTISSLEPEDFAVYYCQQVSLFPLTFGGGTKVEIK | – | 0.436 | 10200 | 18.3 | 0.598
Ab58 (antibody, human IgG1, V domains shown, human IgG1) VH: EVQLVQSGAEVKKPGESLKISCKGSGYSFTSYWIGWVRQMPGKGLEWMGIIYPGDSDTRYSPSFQGQVTISADKSISTAYLQWSSLKASDTAMYYCARLGIYSTGATAFDIWGQGTMVTVSS VL: not shown | no binding | 0.575 | 1870 | 2.73 | –
Ab63 (antibody, human IgG1, V domains shown, human IgG1) VH: QVQLVQSGAEVKKPGASVKVSCKASGYTFTSYGISWVRQAPGQGLEWMGWISTYNGNTNYAQKLQGRVTMTTDTSTSTAYMELRSLRSDDTAVYYCARGSGSGYDSWYDWGQGTLVTVSS VL: DIQMTQSPSSVSASVGDRVTITCRASQGIDSWLAWYQQKPGKAPKLLIYAASSLQSGVPSRFSGSGSGTDFTLTISSLQPEDFATYYCQQAYSLPPTFGGGTKVEIK | no binding | 1.13 | 1720 | 49.6 | –
Ab84 (antibody, human IgG1, V domains shown, human IgG1) VH: QVQLVQSGAEVKKPGASVKVSCKASGYTFTSYGISWVRQAPGQGLEWMGWISTYNGNTNYAQKLQGRVTMTTDTSTSTAYMELRSLRSDDTAVYYCARGSGSGYDSWYDWGQGTLVTVSS VL: not shown | no binding | 1.16 | 799 | 60.4 | –
